B1: Adaptin ear-binding coat-associated protein 2 (Mus musculus), Q9D1J1 (parent)
chain: MEESEYESVLCVKPEVHVYRIPPRATNRGYRASEWQLDQPSWSGRLRITAKGKVAYIKLEDRTSGELFAQAPVDQFPGTAVESVTDSSRYFVIRIEDGNGRRAFIGLGFGDRGDAFDFNVALQDHFKWVKQQCEFAKQAQNPDEGPKLDLGFKDGQTIKINIANMRKKEGAAGTPRARPTSAGGLSLLPPPPGGKSSTVIPPSGEQLSVGGSLVQPAVVSGSGGATELWPQSKPAAAATADIWGDFTKSTGSPSSQSQPGTGWVQF
partner: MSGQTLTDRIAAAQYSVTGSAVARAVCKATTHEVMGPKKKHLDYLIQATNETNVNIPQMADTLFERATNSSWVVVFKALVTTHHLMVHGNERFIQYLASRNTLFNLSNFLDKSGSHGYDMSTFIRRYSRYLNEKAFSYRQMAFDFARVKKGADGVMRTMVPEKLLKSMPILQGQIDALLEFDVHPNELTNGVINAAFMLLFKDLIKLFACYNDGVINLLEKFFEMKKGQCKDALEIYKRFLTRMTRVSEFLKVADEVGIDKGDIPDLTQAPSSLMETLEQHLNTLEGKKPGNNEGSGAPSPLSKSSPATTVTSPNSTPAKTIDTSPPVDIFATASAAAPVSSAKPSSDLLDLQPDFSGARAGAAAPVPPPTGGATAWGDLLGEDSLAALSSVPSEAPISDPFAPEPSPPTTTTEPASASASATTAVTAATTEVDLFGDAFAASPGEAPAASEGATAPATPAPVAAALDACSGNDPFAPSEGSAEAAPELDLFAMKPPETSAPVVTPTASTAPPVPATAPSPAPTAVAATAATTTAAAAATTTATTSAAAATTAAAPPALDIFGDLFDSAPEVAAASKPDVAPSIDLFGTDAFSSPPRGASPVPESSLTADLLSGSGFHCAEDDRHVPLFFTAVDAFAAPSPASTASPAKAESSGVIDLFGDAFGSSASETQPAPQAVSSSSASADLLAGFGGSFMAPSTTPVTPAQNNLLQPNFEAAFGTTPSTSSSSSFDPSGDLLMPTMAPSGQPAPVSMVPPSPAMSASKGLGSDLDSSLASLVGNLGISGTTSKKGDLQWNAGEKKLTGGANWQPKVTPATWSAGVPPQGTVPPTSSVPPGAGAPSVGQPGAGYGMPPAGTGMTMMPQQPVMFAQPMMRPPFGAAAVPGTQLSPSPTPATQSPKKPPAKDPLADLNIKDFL
B2: Adaptin ear-binding coat-associated protein 2 (Mus musculus), Q9D1J1 (parent)
chain: B1 chain
B3: Adaptin ear-binding coat-associated protein 1 (Mus musculus), Q9CR95 (parent)
chain: MAAELEYESVLCVKPDVSVYRIPPRASNRGYRASDWKLDQPDWTGRLRITSKGKIAYIKLEDKVSGELFAQAPVEQYPGIAVETVTDSSRYFVIRIQDGTGRSAFIGIGFTDRGDAFDFNVSLQDHFKWVKQETEISKESQEMDNRPKLDLGFKEGQTIKLSIGNITAKKGGASKPRASGTGGLSLLPPPPGGKVTIPPPSSSVAISNHVTPPPIPKSNHGGNDSDILLDLDSPAPVSTSAPAPVSTSNDLWGDFSTASSSVPNQAPQPSNWVQF
partner: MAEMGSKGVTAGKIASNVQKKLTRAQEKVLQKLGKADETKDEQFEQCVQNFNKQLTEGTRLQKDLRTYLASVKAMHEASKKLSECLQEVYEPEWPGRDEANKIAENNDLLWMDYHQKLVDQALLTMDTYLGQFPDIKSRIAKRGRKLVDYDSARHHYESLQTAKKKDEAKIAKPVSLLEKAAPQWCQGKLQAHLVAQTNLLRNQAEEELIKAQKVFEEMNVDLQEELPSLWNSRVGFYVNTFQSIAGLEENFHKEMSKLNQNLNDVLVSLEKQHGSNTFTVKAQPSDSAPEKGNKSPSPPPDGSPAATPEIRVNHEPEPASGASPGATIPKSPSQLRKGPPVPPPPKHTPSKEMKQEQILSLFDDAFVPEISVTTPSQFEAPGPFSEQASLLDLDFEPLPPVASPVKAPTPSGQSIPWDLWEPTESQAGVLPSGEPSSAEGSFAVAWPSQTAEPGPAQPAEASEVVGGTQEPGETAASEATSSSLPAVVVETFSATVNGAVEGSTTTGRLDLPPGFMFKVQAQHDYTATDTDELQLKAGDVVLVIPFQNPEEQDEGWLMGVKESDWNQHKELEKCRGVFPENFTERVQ
B4: Adaptin ear-binding coat-associated protein 1 (Mus musculus), Q9CR95 (parent)
chain: B3 chain
B5: Adaptin ear-binding coat-associated protein 2 (Mus musculus), Q9D1J1 (parent)
chain: B1 chain
partner: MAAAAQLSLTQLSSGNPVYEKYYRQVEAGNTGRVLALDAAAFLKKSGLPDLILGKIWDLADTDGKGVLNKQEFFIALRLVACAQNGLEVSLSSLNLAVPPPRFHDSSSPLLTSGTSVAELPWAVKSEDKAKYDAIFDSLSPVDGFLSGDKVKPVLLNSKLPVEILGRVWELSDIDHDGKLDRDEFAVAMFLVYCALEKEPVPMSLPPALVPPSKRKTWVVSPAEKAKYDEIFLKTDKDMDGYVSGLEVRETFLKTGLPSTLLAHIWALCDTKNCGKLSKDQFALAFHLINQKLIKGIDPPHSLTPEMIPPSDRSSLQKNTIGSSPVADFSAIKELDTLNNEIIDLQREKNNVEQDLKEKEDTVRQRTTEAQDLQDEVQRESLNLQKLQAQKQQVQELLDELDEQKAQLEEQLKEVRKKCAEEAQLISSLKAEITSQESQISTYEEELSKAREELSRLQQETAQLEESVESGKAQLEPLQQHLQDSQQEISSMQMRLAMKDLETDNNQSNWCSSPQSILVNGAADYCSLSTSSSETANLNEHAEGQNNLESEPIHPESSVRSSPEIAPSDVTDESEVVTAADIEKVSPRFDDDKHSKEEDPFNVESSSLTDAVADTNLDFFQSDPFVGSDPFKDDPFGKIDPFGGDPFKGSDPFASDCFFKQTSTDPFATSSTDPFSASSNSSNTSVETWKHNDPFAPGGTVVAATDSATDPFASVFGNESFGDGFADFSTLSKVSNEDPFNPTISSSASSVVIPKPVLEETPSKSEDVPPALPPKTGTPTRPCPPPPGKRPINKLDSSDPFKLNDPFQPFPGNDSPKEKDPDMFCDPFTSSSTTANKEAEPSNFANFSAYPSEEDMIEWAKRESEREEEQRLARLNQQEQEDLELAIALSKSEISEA

Variants of: B1
Settings: with ap180_rat Snap91, Q05140

| effect of a mutation on the interaction | Variant |
| --- | --- |
| increasing interaction | MEESEYESVLCVKPEVHVYRIPPRATNRGYRASEWQLDQPAWSGRLRITAKGKVAYIKLEDRTSGELFAQAPVDQFPGTAVESVTDSSRYFVIRIEDGNGRRAFIGLGFGDRGDAFDFNVALQDHFKWVKQQCEFAKQAQNPDEGPKLDLGFKDGQTIKINIANMRKKEGAAGTPRARPTSAGGLSLLPPPPGGKSSTVIPPSGEQLSVGGSLVQPAVVSGSGGATELWPQSKPAAAATADIWGDFTKSTGSPSSQSQPGTGWVQF [S41A] |
| disrupting interaction | MEESEYESVLCVKPEVHVYRIPPRATNRGYRASEWQLDQPSWSGRLRITAKGKVAYIKLEDRTSGELFAQAPVDQFPGTAVESVTDSSRYFVIRIEDGNGARAFIGLGFGDRGDAFDFNVALQDHFKWVKQQCEFAKQAQNPDEGPKLDLGFKDGQTIKINIANMRKKEGAAGTPRARPTSAGGLSLLPPPPGGKSSTVIPPSGEQLSVGGSLVQPAVVSGSGGATELWPQSKPAAAATADIWGDFTKSTGSPSSQSQPGTGWVQF [R101A] |
| disrupting interaction | MEESEYESVLCVKPEVHVYAIPPRATNRGYRASEWQLDQPSWSGRLRITAKGKVAYIKLEDRTSGELFAQAPVDQFPGTAVESVTDSSRYFVIRIEDGNGRRAFIGLGFGDRGDAFDFNVALQDHFKWVKQQCEFAKQAQNPDEGPKLDLGFKDGQTIKINIANMRKKEGAAGTPRARPTSAGGLSLLPPPPGGKSSTVIPPSGEQLSVGGSLVQPAVVSGSGGATELWPQSKPAAAATADIWGDFTKSTGSPSSQSQPGTGWVQF [R20A] |

Variants of: B2
Settings: with Synj1, Q62910-1
Chain of Synj1, Q62910-1 (Q62910 whole entry): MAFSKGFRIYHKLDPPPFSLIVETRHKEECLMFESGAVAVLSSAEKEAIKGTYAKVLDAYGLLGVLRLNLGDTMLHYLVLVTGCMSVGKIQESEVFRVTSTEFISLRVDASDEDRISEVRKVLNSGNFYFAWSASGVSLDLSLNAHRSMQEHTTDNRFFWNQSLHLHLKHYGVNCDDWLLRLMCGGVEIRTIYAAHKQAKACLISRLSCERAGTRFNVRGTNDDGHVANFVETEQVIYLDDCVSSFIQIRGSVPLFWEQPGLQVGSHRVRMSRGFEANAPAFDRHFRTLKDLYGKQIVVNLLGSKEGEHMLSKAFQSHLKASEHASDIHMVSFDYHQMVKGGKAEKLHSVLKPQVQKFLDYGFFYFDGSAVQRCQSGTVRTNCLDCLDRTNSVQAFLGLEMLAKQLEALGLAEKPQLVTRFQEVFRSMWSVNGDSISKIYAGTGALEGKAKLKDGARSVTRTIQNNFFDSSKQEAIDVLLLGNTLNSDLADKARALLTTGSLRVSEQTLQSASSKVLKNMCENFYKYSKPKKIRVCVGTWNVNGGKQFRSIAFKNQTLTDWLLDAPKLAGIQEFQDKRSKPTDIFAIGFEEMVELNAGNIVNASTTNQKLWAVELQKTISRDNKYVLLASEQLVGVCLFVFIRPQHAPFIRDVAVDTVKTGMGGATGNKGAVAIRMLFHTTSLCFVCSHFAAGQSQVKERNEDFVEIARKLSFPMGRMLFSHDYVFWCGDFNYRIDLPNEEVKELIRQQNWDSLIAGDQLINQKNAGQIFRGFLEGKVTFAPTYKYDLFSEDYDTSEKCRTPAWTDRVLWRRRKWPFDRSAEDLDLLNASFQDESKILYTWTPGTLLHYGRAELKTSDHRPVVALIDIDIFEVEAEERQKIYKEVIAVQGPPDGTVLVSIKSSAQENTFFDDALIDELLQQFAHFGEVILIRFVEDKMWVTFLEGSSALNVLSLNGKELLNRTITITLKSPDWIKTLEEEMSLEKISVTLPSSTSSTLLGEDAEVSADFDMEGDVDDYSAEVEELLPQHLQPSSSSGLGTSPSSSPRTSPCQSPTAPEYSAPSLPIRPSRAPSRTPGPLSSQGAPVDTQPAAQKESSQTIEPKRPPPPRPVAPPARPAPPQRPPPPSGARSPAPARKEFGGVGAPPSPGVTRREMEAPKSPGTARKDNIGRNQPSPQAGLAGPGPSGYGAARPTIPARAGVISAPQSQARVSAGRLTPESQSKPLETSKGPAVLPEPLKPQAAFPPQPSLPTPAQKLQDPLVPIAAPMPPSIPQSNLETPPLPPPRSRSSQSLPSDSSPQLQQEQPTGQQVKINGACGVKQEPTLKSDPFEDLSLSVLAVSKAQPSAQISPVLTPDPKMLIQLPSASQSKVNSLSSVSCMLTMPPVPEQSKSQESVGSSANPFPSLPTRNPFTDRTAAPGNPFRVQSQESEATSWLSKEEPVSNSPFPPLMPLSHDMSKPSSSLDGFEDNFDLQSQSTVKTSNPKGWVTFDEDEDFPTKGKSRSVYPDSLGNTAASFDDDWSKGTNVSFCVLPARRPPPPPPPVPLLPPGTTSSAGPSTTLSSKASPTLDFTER

| effect of a mutation on the interaction | Variant |
| --- | --- |
| disrupting interaction | MEESEYESVLCVKPEVHVYRIPPRATNRGYRASEWQLDQPSWSGRLRITAKGKVAYIKLEDRTSGELFAQAPVDQFPGTAVESVTDSSRYFVIRIEDGNGARAFIGLGFGDRGDAFDFNVALQDHFKWVKQQCEFAKQAQNPDEGPKLDLGFKDGQTIKINIANMRKKEGAAGTPRARPTSAGGLSLLPPPPGGKSSTVIPPSGEQLSVGGSLVQPAVVSGSGGATELWPQSKPAAAATADIWGDFTKSTGSPSSQSQPGTGWVQF [R101A] |
| decreasing interaction | MEESEYESVLCVKPEVHVYAIPPRATNRGYRASEWQLDQPSWSGRLRITAKGKVAYIKLEDRTSGELFAQAPVDQFPGTAVESVTDSSRYFVIRIEDGNGRRAFIGLGFGDRGDAFDFNVALQDHFKWVKQQCEFAKQAQNPDEGPKLDLGFKDGQTIKINIANMRKKEGAAGTPRARPTSAGGLSLLPPPPGGKSSTVIPPSGEQLSVGGSLVQPAVVSGSGGATELWPQSKPAAAATADIWGDFTKSTGSPSSQSQPGTGWVQF [R20A] |

Variants of: B2
Settings: with epn1_rat Epn1, O88339
Chain of epn1_rat Epn1, O88339 (O88339 whole entry): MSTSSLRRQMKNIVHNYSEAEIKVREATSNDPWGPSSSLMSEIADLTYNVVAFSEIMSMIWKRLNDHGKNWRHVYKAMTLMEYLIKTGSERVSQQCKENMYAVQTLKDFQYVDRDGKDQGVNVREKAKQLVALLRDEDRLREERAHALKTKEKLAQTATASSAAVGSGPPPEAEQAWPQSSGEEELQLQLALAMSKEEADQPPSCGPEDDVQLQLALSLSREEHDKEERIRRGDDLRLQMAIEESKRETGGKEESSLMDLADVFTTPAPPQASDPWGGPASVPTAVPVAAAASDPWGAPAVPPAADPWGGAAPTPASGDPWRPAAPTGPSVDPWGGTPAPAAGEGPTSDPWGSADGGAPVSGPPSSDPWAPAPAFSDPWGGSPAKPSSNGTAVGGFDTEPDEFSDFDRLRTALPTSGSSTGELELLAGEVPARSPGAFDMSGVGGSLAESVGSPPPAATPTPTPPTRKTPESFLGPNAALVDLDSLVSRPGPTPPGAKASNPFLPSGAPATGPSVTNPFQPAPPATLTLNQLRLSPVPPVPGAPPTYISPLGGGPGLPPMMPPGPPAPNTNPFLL

| effect of a mutation on the interaction | Variant |
| --- | --- |
| disrupting interaction | MEESEYESVLCVKPEVHVYRIPPRATNRGYRASEWQLDQPSWSGRLRITAKGKVAYIKLEDRTSGELFAQAPVDQFPGTAVESVTDSSRYFVIRIEDGNGARAFIGLGFGDRGDAFDFNVALQDHFKWVKQQCEFAKQAQNPDEGPKLDLGFKDGQTIKINIANMRKKEGAAGTPRARPTSAGGLSLLPPPPGGKSSTVIPPSGEQLSVGGSLVQPAVVSGSGGATELWPQSKPAAAATADIWGDFTKSTGSPSSQSQPGTGWVQF [R101A] |

Variants of: B3
Settings: with bin1_rat Bin1, O08839

| effect of a mutation on the interaction | Variant |
| --- | --- |
| disrupting interaction | MAAELEYESVLCVKPDVSVYRIPPRASNRGYRASDWKLDQPDWTGRLRITSKGKIAYIKLEDKVSGELFAQAPVEQYPGIAVETVTDSSRYFVIRIQDGTGASAFIGIGFTDRGDAFDFNVSLQDHFKWVKQETEISKESQEMDNRPKLDLGFKEGQTIKLSIGNITAKKGGASKPRASGTGGLSLLPPPPGGKVTIPPPSSSVAISNHVTPPPIPKSNHGGNDSDILLDLDSPAPVSTSAPAPVSTSNDLWGDFSTASSSVPNQAPQPSNWVQF [R102A] |
| disrupting interaction | MAAELEYESVLCVKPDVSVYAIPPRASNRGYRASDWKLDQPDWTGRLRITSKGKIAYIKLEDKVSGELFAQAPVEQYPGIAVETVTDSSRYFVIRIQDGTGRSAFIGIGFTDRGDAFDFNVSLQDHFKWVKQETEISKESQEMDNRPKLDLGFKEGQTIKLSIGNITAKKGGASKPRASGTGGLSLLPPPPGGKVTIPPPSSSVAISNHVTPPPIPKSNHGGNDSDILLDLDSPAPVSTSAPAPVSTSNDLWGDFSTASSSVPNQAPQPSNWVQF [R21A] |

Variants of: B4
Settings: with Synj1, Q62910-1

| effect of a mutation on the interaction | Variant |
| --- | --- |
| disrupting interaction | MAAELEYESVLCVKPDVSVYRIPPRASNRGYRASDWKLDQPDWTGRLRITSKGKIAYIKLEDKVSGELFAQAPVEQYPGIAVETVTDSSRYFVIRIQDGTGASAFIGIGFTDRGDAFDFNVSLQDHFKWVKQETEISKESQEMDNRPKLDLGFKEGQTIKLSIGNITAKKGGASKPRASGTGGLSLLPPPPGGKVTIPPPSSSVAISNHVTPPPIPKSNHGGNDSDILLDLDSPAPVSTSAPAPVSTSNDLWGDFSTASSSVPNQAPQPSNWVQF [R102A] |
| decreasing interaction | MAAELEYESVLCVKPDVSVYAIPPRASNRGYRASDWKLDQPDWTGRLRITSKGKIAYIKLEDKVSGELFAQAPVEQYPGIAVETVTDSSRYFVIRIQDGTGRSAFIGIGFTDRGDAFDFNVSLQDHFKWVKQETEISKESQEMDNRPKLDLGFKEGQTIKLSIGNITAKKGGASKPRASGTGGLSLLPPPPGGKVTIPPPSSSVAISNHVTPPPIPKSNHGGNDSDILLDLDSPAPVSTSAPAPVSTSNDLWGDFSTASSSVPNQAPQPSNWVQF [R21A] |

Variants of: B5
Settings: with Eps15, A7BFV9

| effect of a mutation on the interaction | Variant |
| --- | --- |
| disrupting interaction | MEESEYESVLCVKPEVHVYAIPPRATNRGYRASEWQLDQPSWSGRLRITAKGKVAYIKLEDRTSGELFAQAPVDQFPGTAVESVTDSSRYFVIRIEDGNGRRAFIGLGFGDRGDAFDFNVALQDHFKWVKQQCEFAKQAQNPDEGPKLDLGFKDGQTIKINIANMRKKEGAAGTPRARPTSAGGLSLLPPPPGGKSSTVIPPSGEQLSVGGSLVQPAVVSGSGGATELWPQSKPAAAATADIWGDFTKSTGSPSSQSQPGTGWVQF [R20A] |
| disrupting interaction | MEESEYESVLCVKPEVHVYRIPPRATNRGYRASEWQLDQPSWSGRLRITAKGKVAYIKLEDRTSGELFAQAPVDQFPGTAVESVTDSSRYFVIRIEDGNGARAFIGLGFGDRGDAFDFNVALQDHFKWVKQQCEFAKQAQNPDEGPKLDLGFKDGQTIKINIANMRKKEGAAGTPRARPTSAGGLSLLPPPPGGKSSTVIPPSGEQLSVGGSLVQPAVVSGSGGATELWPQSKPAAAATADIWGDFTKSTGSPSSQSQPGTGWVQF [R101A] |
